The text below walks through data of PMC2553845 (2008).

Where no end group is shown, it is not given here.

Holding throughout (assay): ELISA
In general terms: An ELISA detects its analyte on a solid surface through an enzyme-linked reagent.

One test addresses T1, SCRIB PDZ domain 2 (human, UniProt Q14160 862-950).
T1 chain: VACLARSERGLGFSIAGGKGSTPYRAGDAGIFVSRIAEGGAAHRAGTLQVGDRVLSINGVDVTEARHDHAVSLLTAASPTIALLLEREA

Another test addresses T2, SCRIB PDZ domain 3 (human, UniProt Q14160 1004-1093).
T2 chain: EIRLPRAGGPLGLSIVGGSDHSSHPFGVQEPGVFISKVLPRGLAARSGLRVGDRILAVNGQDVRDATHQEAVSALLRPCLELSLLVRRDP

The target of the next test is SCRIB PDZ domain 1 (human, UniProt Q14160 728-815).
Sequence of SCRIB PDZ domain 1 (Q14160 728-815): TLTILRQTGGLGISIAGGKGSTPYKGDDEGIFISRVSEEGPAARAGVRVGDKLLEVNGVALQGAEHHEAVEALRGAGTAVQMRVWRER

For the molecule KHFRETEV (not fully specified) [peptide 2, C terminus of the HTLV-1 Tax protein], the IC50 worked out at 5.2 µM in the test with SCRIB PDZ domain 2, 58 µM with SCRIB PDZ domain 3 and 3.4 µM with SCRIB PDZ domain 1.
On to RQIKIWFQNRRMKWKKRSWFETWV (not fully specified) [designed SCRIB PDZ-binding peptide Π-RSWFETWV (peptide 14)], for which the IC50 with SCRIB PDZ domain 2 worked out at 4.7 µM; in the test with SCRIB PDZ domain 3, 3.9 µM; with SCRIB PDZ domain 1, 2.2 µM.

By IC50 is commonly meant the concentration needed to halve the response being measured. Lower therefore signals greater potency in that assay.
